Substrate: CC(=O)C(=O)O
Experiment: purified protein
Assay type: biochemical, Escherichia coli
Details: 37 °C, pyruvate (1–90 mM) as donor and acceptor, no D-GAP

B1: DXP synthase (Escherichia coli K-12) (protein)
chain: SFDIAKYPTLALVDSTQELRLLPKESLPKLCDELRRYLLDSVSRSSGHFASGLGTVELTVALHYVYNTPFDQLIWDVGHQAYPHKILTGRRDKIGTIRQKGGLHPFPWRGESEYDVLSVGHSSTSISAGIGIAVAAEKEGKNRRTVCVIGDGAITAGMAFEAMNHAGDIRPDMLVILNDNEMSISENVGALNNHLAQLLSGKLYSSLREGGKKVFSGVPPIKELLKRTEEHIKGMVVPGTLFEELGFNYIGPVDGHDVLGLITTLKNMRDLKGPQFLHIMTKKGRGYEPAEKDPITFHAVPKFDPSSGCLPKSSGGLPSYSKIFGDWLCETAAKDNKLMAITPAMREGSGMVEFSRKFPDRYFDVAIAEQHAVTFAAGLAIGGYKPIVAIYSTFLQRAYDQVLHDVAIQKLPVLFAIDRAGIVGADGQTHQGAFDLSYLRCIPEMVIMTPSDENECRQMLYTGYHYNDGPSAVRYPRGNAVGVELTPLEKLPIGKGIVKRRGEKLAILNFGTLMPEAAKVAESLNATLVDMRFVKPLDEALILEMAASHEALVTVEENAIMGGAGSGVNEVLMAHRKPVPVLNIGLPDFFIPQGTQEEMRAELGLDAAGMEAKIKAWLA
K0.5: 51.0 ± 1.7 mM

From PMC3494461
